Test results from article PMC9214244, “Multivalent Interaction of Beta-Catenin With its Intrinsically Disordered Binding Partner Adenomatous Polyposis Coli” (Frontiers in Molecular Biosciences, 2022).
pKd: −log10 of the molar value.

What was measured:
[1] = molecular target: pAPCabc with the flexible linker (FL) inserted between residues 1,500 and 1,501, fluorescein-labelled at Cys 1501 (UniProt P25054); assay: stopped-flow fluorescence; association: 25 nM fluorescein-labelled APC mixed 1:1 by volume with 250-2,000 nM β-catenin (pseudo first-order); dissociation: pre-formed 1:1 complex (200 nM) mixed with 10 times molar excess of the same APC construct; PBS, 1 mM DTT; 15°C
[2] = molecular target: APCabc with the flexible linker (FL) inserted between residues 1,478 and 1,479, fluorescein-labelled at Cys 1501 (UniProt P25054); assay: as above
[3] = molecular target: pAPCabc with the polyproline linker (PP) inserted between residues 1,500 and 1,501, fluorescein-labelled at Cys 1501 (UniProt P25054); assay: as above
[4] = molecular target: APCbc, APC R3 subdomains b and c (residues 1,483–1,533), fluorescein-labelled at Cys 1501 (UniProt P25054); assay: as above
[5] = molecular target: pAPCabc with the rigid linker (RL) inserted between residues 1,500 and 1,501, fluorescein-labelled at Cys 1501 (UniProt P25054); assay: as above
[6] = molecular target: pAPCabc, full-length R3 domain APCabc containing all five phosphomimetics, fluorescein-labelled at Cys 1501 (UniProt P25054); assay: as above
[7] = molecular target: APCabc with the rigid linker (RL) inserted between residues 1,500 and 1,501, fluorescein-labelled at Cys 1501 (UniProt P25054); assay: as above
[8] = molecular target: pAPCabc D1486S, fluorescein-labelled at Cys 1501 (UniProt P25054); assay: as above
[9] = molecular target: APCabc, third 20aa repeat (R3) region of APC with subdomains a, b and c, fluorescein-labelled at Cys 1501 (UniProt P25054); assay: as above
[10] = molecular target: APCabc with the flexible linker (FL) inserted between residues 1,500 and 1,501, fluorescein-labelled at Cys 1501 (UniProt P25054); assay: as above
[11] = molecular target: APCabc with the flexible linker (FL) inserted between residues 1,478 and 1,479, fluorescein-labelled at Cys 1501 (UniProt P25054); assay: fluorescence polarisation; fluorescence anisotropy; β-catenin titrated into 10 nM fluorescein-labelled APC construct; PBS, 1 mM DTT; 15°C; adjusted anisotropy fitted to a Hill equation
[12] = molecular target: pAPCabc with the rigid linker (RL) inserted between residues 1,500 and 1,501, fluorescein-labelled at Cys 1501 (UniProt P25054); assay: as above
[13] = molecular target: APCabc with the rigid linker (RL) inserted between residues 1,500 and 1,501, fluorescein-labelled at Cys 1501 (UniProt P25054); assay: as above

armadillo (ARM) repeat domain of human β-catenin (residues 134–671), sequence (P35222 other isoform, or with tags, fused parts or gaps): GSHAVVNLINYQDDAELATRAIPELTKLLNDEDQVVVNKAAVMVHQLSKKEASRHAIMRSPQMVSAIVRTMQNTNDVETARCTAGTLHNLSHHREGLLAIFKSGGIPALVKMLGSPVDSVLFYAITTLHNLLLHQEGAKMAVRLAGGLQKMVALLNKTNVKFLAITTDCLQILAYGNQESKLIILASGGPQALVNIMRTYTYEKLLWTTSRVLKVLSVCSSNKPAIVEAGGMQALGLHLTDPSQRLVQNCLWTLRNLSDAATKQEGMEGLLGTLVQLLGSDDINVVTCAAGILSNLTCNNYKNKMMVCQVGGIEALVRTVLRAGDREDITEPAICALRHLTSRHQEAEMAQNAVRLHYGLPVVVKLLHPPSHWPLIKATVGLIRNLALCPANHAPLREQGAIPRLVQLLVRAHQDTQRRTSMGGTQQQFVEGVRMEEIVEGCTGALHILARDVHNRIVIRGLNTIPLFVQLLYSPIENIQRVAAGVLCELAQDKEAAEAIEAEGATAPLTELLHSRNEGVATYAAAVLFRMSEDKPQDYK

koff fast [1]: 0.16 s⁻¹ | koff slow [1]: 0.0085 s⁻¹ | kon [1]: 1.01e+08 M⁻¹ s⁻¹ | time constant τ (from the fast off-rate) [1]: 4.45 s | koff fast [2]: 0.77 s⁻¹ | koff slow [2]: 0.177 s⁻¹ | kon [2]: 8.35e+07 M⁻¹ s⁻¹ | time constant τ (from the fast off-rate) [2]: 0.9 s | koff fast [3]: 0.44 s⁻¹ | koff slow [3]: 0.018 s⁻¹ | kon [3]: 8.97e+07 M⁻¹ s⁻¹ | time constant τ (from the fast off-rate) [3]: 1.59 s | koff fast [4]: 0.73 s⁻¹ | kon [4]: 1.48e+07 M⁻¹ s⁻¹ | time constant τ (from the fast off-rate) [4]: 0.96 s | koff fast [5]: 0.21 s⁻¹ | koff slow [5]: 0.0122 s⁻¹ | kon [5]: 1.02e+08 M⁻¹ s⁻¹ | time constant τ (from the fast off-rate) [5]: 3.52 s | koff fast [6]: 0.07 s⁻¹ | koff slow [6]: 0.0021 s⁻¹ | kon [6]: 2.07e+08 M⁻¹ s⁻¹ | time constant τ (from the fast off-rate) [6]: 9.51 s | koff fast [7]: 0.89 s⁻¹ | koff slow [7]: 0.223 s⁻¹ | kon [7]: 1.81e+07 M⁻¹ s⁻¹ | time constant τ (from the fast off-rate) [7]: 0.8 s | koff fast [8]: 2.89 s⁻¹ | koff slow [8]: 0.4 s⁻¹ | kon [8]: 1.51e+08 M⁻¹ s⁻¹ | time constant τ (from the fast off-rate) [8]: 0.24 s | koff fast [9]: 0.46 s⁻¹ | koff slow [9]: 0.11 s⁻¹ | kon [9]: 4.92e+07 M⁻¹ s⁻¹ | time constant τ (from the fast off-rate) [9]: 1.54 s | koff fast [10]: 0.45 s⁻¹ | koff slow [10]: 0.1 s⁻¹ | kon [10]: 2.41e+07 M⁻¹ s⁻¹ | time constant τ (from the fast off-rate) [10]: 1.54 s | pKd [11]: 7.67 | pKd [12]: 7.97 | pKd [13]: 7.51
Substance: armadillo (ARM) repeat domain of human β-catenin (residues 134–671) (from UniProt P35222 134-671) (domain or fragment)
